Target: HLA-A*02:01 (Homo sapiens, UniProt P04439, D140Y/D185E/D98H/E176V/E277Q/G131W/G231S/I119V/I121R/I166T/I218V/L300P/L318F/N151K/N90K/P208A/P217A/Q86G/Q94H/R138H/R169H/T345S)
Experiment: MHC binding assay: UV-ligand exchange with β2m ELISA (peptide exchange yield)
Conditions: MHC class I binding score; binding to HLA-A*02:01 ranged by peptide exchange yield (UV-ligand exchange, β2m ELISA)
Excerpt: Candidate peptides for T cell based therapies according to the present invention were further tested for their MHC binding capacity (affinity). The individual peptide-MHC complexes were produced by UV-ligand exchange, where a UV-sensitive peptide is cleaved upon UV-irradiation, and exchanged with the peptide of interest as analyzed. Only peptide candidates that can effectively bind and stabilize the peptide-receptive MHC molecules prevent dissociation of the MHC complexes. To determine the yield of the exchange reaction, an ELISA was performed based on the detection of the light chain (β2m) of stabilized MHC complexes. The assay was performed as generally described in Rodenko et al. (Rodenko et al., 2006).
96 well MAXISorp plates (NUNC) were coated over night with 2 ug/ml streptavidin in PBS at room temperature, washed 4× and blocked for 1 h at 37° C. in 2% BSA containing blocking buffer. Refolded HLA-A*02:01/MLA-001 monomers served as standards, covering the range of 15-500 ng/ml. Peptide-MHC monomers of the UV-exchange reaction were diluted 100 fold in blocking buffer. Samples were incubated for 1 h at 37° C., washed four times, incubated with 2 ug/ml HRP conjugated anti-β2m for 1 h at 37° C., washed again and detected with TMB solution that is stopped with […]. Absorption was measured at 450 nm. Candidate peptides that show a high exchange yield (preferably higher than 50%, most preferred higher than 75%) are generally preferred for a generation and production of antibodies or fragments thereof, and/or T cell receptors or fragments thereof, as they show sufficient avidity to the MHC molecules and prevent dissociation of the MHC complexes.

Substance	Peptide Exchange
6 (ALDTLEDDMTI; listed as Homo sapiens) [compound 6]	″+++″ (≥50 = +++)
7 (ALLERTGYTL; listed as Homo sapiens) [compound 7]	″+++″ (≥50 = +++)
9 (ALCDTLITV; listed as Homo sapiens) [compound 9]	″+++″ (≥50 = +++)
12 (ALGEDEITL; listed as Homo sapiens) [compound 12]	″+++″ (≥50 = +++)
13 (VVDGMPPGV; listed as Homo sapiens) [compound 13]	″+++″ (≥50 = +++)
14 (ALLRLLPGL; listed as Homo sapiens) [compound 14]	″+++″ (≥50 = +++)
16 (ALPGGAAVAAV; listed as Homo sapiens) [compound 16]	″++++″ (≥75% = ++++)
21 (ALWAGLLTL; listed as Homo sapiens) [compound 21]	″+++″ (≥50 = +++)
22 (ALWDPVIEL; listed as Homo sapiens) [compound 22]	″+++″ (≥50 = +++)
24 (AMAGDVVYA; listed as Homo sapiens) [compound 24]	″+++″ (≥50 = +++)
27 (AVLGLVWLL; listed as Homo sapiens) [compound 27]	″+++″ (≥50 = +++)
30 (ELLEGSEIYL; listed as Homo sapiens) [compound 30]	″+++″ (≥50 = +++)
34 (YLPYIFPNI; listed as Homo sapiens) [compound 34]	″+++″ (≥50 = +++)
35 (FILPSSLYL; listed as Homo sapiens) [compound 35]	″+++″ (≥50 = +++)
36 (FILTHVDQL; listed as Homo sapiens) [compound 36]	″++++″ (≥75% = ++++)
41 (FLDPSLDPLL; listed as Homo sapiens) [compound 41]	″+++″ (≥50 = +++)
45 (FLPELPADLEA; listed as Homo sapiens) [compound 45]	″+++″ (≥50 = +++)
46 (YIIDSAQAV; listed as Homo sapiens) [compound 46]	″+++″ (≥50 = +++)
47 (FLSDQPEPYL; listed as Homo sapiens) [compound 47]	″++″ (≥20% = ++)
50 (FLFEPVVKAFL; listed as Homo sapiens) [compound 50]	″+++″ (≥50 = +++)
51 (FLVEAPHDWDL; listed as Homo sapiens) [compound 51]	″++++″ (≥75% = ++++)
53 (FLWQHVELVL; listed as Homo sapiens) [compound 53]	″+++″ (≥50 = +++)
55 (FMEPTLLML; listed as Homo sapiens) [compound 55]	″+++″ (≥50 = +++)
64 (KLLESVASA; listed as Homo sapiens) [compound 64]	″+++″ (≥50 = +++)
66 (SLAGGLDDMKA; listed as Homo sapiens) [compound 66]	″+++″ (≥50 = +++)
68 (GLDQQFAGLDL; listed as Homo sapiens) [compound 68]	″+″ (≥10% = +)
70 (FVPDTPVGV; listed as Homo sapiens) [compound 70]	″+++″ (≥50 = +++)
71 (GLKHDIARV; listed as Homo sapiens) [compound 71]	″+++″ (≥50 = +++)

Other lines, results leading:

Peptide Exchange	Substance
″++″ (≥20% = ++)	3 (VIAELPPKV; listed as Homo sapiens) [compound 3]
″+++″ (≥50 = +++)	4 (VIAELPPKVSV; listed as Homo sapiens) [compound 4]
″+++″ (≥50 = +++)	8 (ALAASALPALV; listed as Homo sapiens) [compound 8]
″+++″ (≥50 = +++)	10 (FVYGESVEL; listed as Homo sapiens) [compound 10]
″+++″ (≥50 = +++)	11 (ALFTFSPLTV; listed as Homo sapiens) [compound 11]
″+++″ (≥50 = +++)	15 (ALPEVSVEA; listed as Homo sapiens) [compound 15]
″+++″ (≥50 = +++)	18 (LLGEFSIKM; listed as Homo sapiens) [compound 18]
″+++″ (≥50 = +++)	19 (QVMEKLAAV; listed as Homo sapiens) [compound 19]
″+++″ (≥50 = +++)	20 (ALVDPGPDFVV; listed as Homo sapiens) [compound 20]
″++++″ (≥75% = ++++)	23 (ALYLTEVFL; listed as Homo sapiens) [compound 23]
″++″ (≥20% = ++)	25 (ATYSGLESQSV; listed as Homo sapiens) [compound 25]
″++″ (≥20% = ++)	28 (AVLHLLLSV; listed as Homo sapiens) [compound 28]
″+++″ (≥50 = +++)	29 (AVLQAVTAV; listed as Homo sapiens) [compound 29]
″+++″ (≥50 = +++)	31 (ELMHGVAGV; listed as Homo sapiens) [compound 31]
″++++″ (≥75% = ++++)	37 (FIMEGGAMVL; listed as Homo sapiens) [compound 37]
″+++″ (≥50 = +++)	38 (FIMEGGAMV; listed as Homo sapiens) [compound 38]

Peptide Exchange	Substance
″+++″ (≥50 = +++)	39 (FLDALLTDV; listed as Homo sapiens) [compound 39]
″++″ (≥20% = ++)	40 (FLDEDDMSL; listed as Homo sapiens) [compound 40]
″+++″ (≥50 = +++)	42 (FLEEGGVVTV; listed as Homo sapiens) [compound 42]
″++++″ (≥75% = ++++)	43 (FLLGPEALSFA; listed as Homo sapiens) [compound 43]
″+++″ (≥50 = +++)	44 (FLLSINDFL; listed as Homo sapiens) [compound 44]
″+++″ (≥50 = +++)	48 (FLSPQQPPLL; listed as Homo sapiens) [compound 48]
″++++″ (≥75% = ++++)	52 (FLVETGFLHV; listed as Homo sapiens) [compound 52]
″+++″ (≥50 = +++)	58 (YIQQGIFSV; listed as Homo sapiens) [compound 58]
″+++″ (≥50 = +++)	59 (FVFGDENGTVSL; listed as Homo sapiens) [compound 59]
″+++″ (≥50 = +++)	60 (FVLDHEDGLNL; listed as Homo sapiens) [compound 60]
″+++″ (≥50 = +++)	61 (FVYFIVREV; listed as Homo sapiens) [compound 61]
″+++″ (≥50 = +++)	62 (GIIDGSPRL; listed as Homo sapiens) [compound 62]
″+++″ (≥50 = +++)	63 (SLAHVAGCEL; listed as Homo sapiens) [compound 63]
″++″ (≥20% = ++)	65 (GLDDMKANL; listed as Homo sapiens) [compound 65]
″++″ (≥20% = ++)	67 (GLDDVTVEV; listed as Homo sapiens) [compound 67]
″+++″ (≥50 = +++)	72 (GLLDAGKMYV; listed as Homo sapiens) [compound 72]

Reference: US10117916B2, “Peptides and combination of peptides for use in immunotherapy against CLL and other cancers” (immatics biotechnologies GmbH, priority 2015, dated 2018)
